# Measured values taken from the supplement of paper PMC10724198.
# Tested on: Saccharomyces cerevisiae
# Assay: protein stability index of tFT-peptide fusion in wild type (PSI (0-1 scale)); higher = more stable (slower turnover)
# Conditions: genetic background: wild type
# Protocol: (§1)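 MPS profiling in S. cerevisiae of two library types built from selected 12-aa C-degron peptides (IN1, IN2, LN1, LN3, VN2, R1-R5, W1-W3, Atg1 and Rpa12 C-termini): saturation mutagenesis libraries and C-terminal +1 capping libraries (13 aa). Each peptide is fused to the C-terminus of a sfGFP-mCherry timer, after a GGGS linker. Cells are FACS-sorted into 8 mCherry/sfGFP bins and sequenced. PSI runs from 0 (unstable) to 1 (stable), measured once in wild type and in the das1Δ or doa10Δ background.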
# 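Wherever protein stability index of tFT-peptide fusion in deletion strain of DAS1 is given: PSI is a weighted mean of each variant's read distribution over the sorted stability bins, computed only for variants having over 10 reads in total.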
# 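Wherever protein stability index of tFT-peptide fusion in wild type is given: PSI derived as read-weighted mean over the 8 sorting bins, only variants exceeding 10 total reads kept, mCherry placed adjacent to the peptide and sfGFP distal.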
row,Sequence,protein stability index
1,LVTYLSCVACIN,0.0357
2,LVVRLSCVACIN,0.0177
3,LVVTLSCVACIN,0.0146
4,LVVYLFCVACIN,0.0137
5,LVVYLMCVACIN,0.0154
6,LVVYLSCDACIN,0.144
7,LVVYLSCGACIN,0.283
8,LVVYLSCVACIA,0.0168
9,LVVYLSCVACIK,0.0121
10,LVVYLSCVACIL,0.0189
11,LVVYLSCVACINC,0.0649
12,LVVYLSCVACINR,0.0215
13,LVVYLSCVACINW,0.0246
14,LVVYLSCVACWN,0.0216
15,LVVYLSCVAPIN,0.457
16,LVVYLSCVGCIN,0.244
17,LVVYLSCVNCIN,0.135
18,LVVYLSCVRCIN,0.109
19,LVVYLSCVYCIN,0.0441
20,LVVYLSCWACIN,0.02
21,LVVYLSCYACIN,0.0136
22,LVVYLSQVACIN,0.0161
23,LVVYLVCVACIN,0.0125
24,MTSCGYKFRTNN,0.212

row,Sequence,protein stability index
1,NRGAVGGWRLVG,0.164
2,PDARNHLIKLLN,0.12
3,PDKDNHLIKLLN,0.281
4,PDKENHLIKLLN,0.265
5,PDKHNHLIKLLN,0.0998
6,PDKNNHLIKLLN,0.242
7,PDKRNHEIKLLN,0.447
8,PDKRNHLFKLLN,0.112
9,PDKRNHLIKALN,0.252
10,PDKRNHLIKLHN,0.359
11,PDKRNHLIKLLH,0.154
12,PDKRNHLIKLLNC,0.124
13,PDKRNHLIKLLNF,0.176
14,PDKRNHLIKLLNI,0.216
15,PDKRNHLIKLLP,0.595
16,PDKRNHLIKLLT,0.205
17,PDKRNHLIKLLW,0.578
18,PDKRNHLIKLSN,0.486
19,PDKRNHLIKLTN,0.292
20,PDKRNHLIKNLN,0.473
21,PDKRNHLIKQLN,0.0992
22,PDKRNHLINLLN,0.113
23,PDKRNMLIKLLN,0.0899
24,PDKRNRLIKLLN,0.141

row,Sequence,protein stability index
1,PDKRTHLIKLLN,0.0881
2,PDKTNHLIKLLN,0.144
3,PDRRNHLIKLLN,0.118
4,PDSRNHLIKLLN,0.125
5,PHKRNHLIKLLN,0.141
6,PILAASFWRVVG,0.145
7,PKKRNHLIKLLN,0.149
8,PMKRNHLIKLLN,0.069
9,PRKRNHLIKLLN,0.141
10,PSLAAEFWRVVG,0.168
11,PSLAASEWRVVG,0.535
12,PSLAASFMRVVG,0.531
13,PSLAASFWAVVG,0.601
14,PSLAASFWHVVG,0.46
15,PSLAASFWQVVG,0.465
16,PSLAASFWRDVG,0.645
17,PSLAASFWRLVG,0.135
18,PSLAASFWRVQG,0.155
19,PSLAASFWRVVA,0.131
20,PSLAASFWRVVN,0.133
21,PSLAASFWRVVY,0.636
22,PSLAASFWTVVG,0.62
23,PSLAASFYRVVG,0.625
24,PSLAASKWRVVG,0.138

row,Sequence,protein stability index
1,PSLAASLWRVVG,0.133
2,PSLAASVWRVVG,0.162
3,PSLAPSFWRVVG,0.136
4,PSLARSFWRVVG,0.293
5,PSNAASFWRVVG,0.162
6,PYKRNHLIKLLN,0.141
7,QRGAVGGWRLVG,0.161
8,RLIDPLPVQFLN,0.121
9,RLIHPLPVQFLN,0.0474
10,RLINPLPVQFLN,0.0773
11,RLIQILPVQFLN,0.0377
12,RLIQPLAVQFLN,0.0616
13,RLIQPLHVQFLN,0.054
14,RLIQPLPVFFLN,0.0542
15,RLIQPLPVQFLNH,0.646
16,RLIQPLPVQFLNN,0.432
17,RLIQPLPVQFLNP,0.65
18,RLIQPLPVQFLV,0.0819
19,RLIQPLPVQFLY,0.28
20,RLIQPLPVQFSN,0.591
21,RLIQPLPVQGLN,0.659
22,RLIQPLPVQQLN,0.125
23,RLIQPLPVQRLN,0.0805
24,RLIQPLPVRFLN,0.0593

row,Sequence,protein stability index
1,RLIQPLQVQFLN,0.0288
2,RLIQPWPVQFLN,0.0573
3,RLIQYLPVQFLN,0.0219
4,RLVQPLPVQFLN,0.0538
5,RVVYLSCVACIN,0.0144
6,TDKRNHLIKLLN,0.12
7,VRGAVDGWRLVG,0.156
8,VRGAVGAWRLVG,0.144
9,VRGAVGGTRLVG,0.63
10,VRGAVGGWDLVG,0.664
11,VRGAVGGWRLEG,0.642
12,VRGAVGGWRLIG,0.146
13,VRGAVGGWRLVC,0.143
14,VRGAVGGWRLVGG,0.66
15,VRGAVGGWRLVGW,0.666
16,VRGAVGGWRPVG,0.667
17,VRGAVGGWRWVG,0.144
18,VRGAVGGWVLVG,0.202
19,VRGAVGGWWLVG,0.455
20,VRGAVGVWRLVG,0.16
21,VRGIVGGWRLVG,0.171

# Tested on: Saccharomyces cerevisiae
# Assay: protein stability index of tFT-peptide fusion in deletion strain of DAS1 (PSI (0-1 scale)); higher = more stable (slower turnover)
# Conditions: not given
# Protocol: as §1
row,Sequence,protein stability index
1,LVTYLSCVACIN,0.167
2,LVVRLSCVACIN,0.0347
3,LVVTLSCVACIN,0.0408
4,LVVYLFCVACIN,0.0277
5,LVVYLMCVACIN,0.0335
6,LVVYLSCDACIN,0.191
7,LVVYLSCGACIN,0.3
8,LVVYLSCVACIA,0.0258
9,LVVYLSCVACIK,0.0213
10,LVVYLSCVACIL,0.032
11,LVVYLSCVACINC,0.0918
12,LVVYLSCVACINR,0.034
13,LVVYLSCVACINW,0.0403
14,LVVYLSCVACWN,0.0568
15,LVVYLSCVAPIN,0.449
16,LVVYLSCVGCIN,0.293
17,LVVYLSCVNCIN,0.419
18,LVVYLSCVRCIN,0.335
19,LVVYLSCVYCIN,0.158
20,LVVYLSCWACIN,0.0504
21,LVVYLSCYACIN,0.0478
22,LVVYLSQVACIN,0.0854
23,LVVYLVCVACIN,0.0307
24,MTSCGYKFRTNN,0.688

row,Sequence,protein stability index
1,NRGAVGGWRLVG,0.665
2,PDARNHLIKLLN,0.612
3,PDKDNHLIKLLN,0.568
4,PDKENHLIKLLN,0.602
5,PDKHNHLIKLLN,0.622
6,PDKNNHLIKLLN,0.757
7,PDKRNHEIKLLN,0.596
8,PDKRNHLFKLLN,0.609
9,PDKRNHLIKALN,0.589
10,PDKRNHLIKLHN,0.593
11,PDKRNHLIKLLH,0.612
12,PDKRNHLIKLLNC,0.663
13,PDKRNHLIKLLNF,0.67
14,PDKRNHLIKLLNI,0.662
15,PDKRNHLIKLLP,0.596
16,PDKRNHLIKLLT,0.622
17,PDKRNHLIKLLW,0.586
18,PDKRNHLIKLSN,0.609
19,PDKRNHLIKLTN,0.568
20,PDKRNHLIKNLN,0.54
21,PDKRNHLIKQLN,0.575
22,PDKRNHLINLLN,0.605
23,PDKRNMLIKLLN,0.722
24,PDKRNRLIKLLN,0.592

row,Sequence,protein stability index
1,PDKRTHLIKLLN,0.655
2,PDKTNHLIKLLN,0.658
3,PDRRNHLIKLLN,0.664
4,PDSRNHLIKLLN,0.6
5,PHKRNHLIKLLN,0.694
6,PILAASFWRVVG,0.678
7,PKKRNHLIKLLN,0.596
8,PMKRNHLIKLLN,0.569
9,PRKRNHLIKLLN,0.633
10,PSLAAEFWRVVG,0.697
11,PSLAASEWRVVG,0.703
12,PSLAASFMRVVG,0.681
13,PSLAASFWAVVG,0.686
14,PSLAASFWHVVG,0.691
15,PSLAASFWQVVG,0.692
16,PSLAASFWRDVG,0.695
17,PSLAASFWRLVG,0.688
18,PSLAASFWRVQG,0.672
19,PSLAASFWRVVA,0.68
20,PSLAASFWRVVN,0.67
21,PSLAASFWRVVY,0.682
22,PSLAASFWTVVG,0.708
23,PSLAASFYRVVG,0.689
24,PSLAASKWRVVG,0.666

row,Sequence,protein stability index
1,PSLAASLWRVVG,0.673
2,PSLAASVWRVVG,0.661
3,PSLAPSFWRVVG,0.682
4,PSLARSFWRVVG,0.7
5,PSNAASFWRVVG,0.686
6,PYKRNHLIKLLN,0.6
7,QRGAVGGWRLVG,0.655
8,RLIDPLPVQFLN,0.62
9,RLIHPLPVQFLN,0.616
10,RLINPLPVQFLN,0.668
11,RLIQILPVQFLN,0.546
12,RLIQPLAVQFLN,0.6
13,RLIQPLHVQFLN,0.61
14,RLIQPLPVFFLN,0.586
15,RLIQPLPVQFLNH,0.661
16,RLIQPLPVQFLNN,0.663
17,RLIQPLPVQFLNP,0.664
18,RLIQPLPVQFLV,0.643
19,RLIQPLPVQFLY,0.682
20,RLIQPLPVQFSN,0.601
21,RLIQPLPVQGLN,0.739
22,RLIQPLPVQQLN,0.596
23,RLIQPLPVQRLN,0.643
24,RLIQPLPVRFLN,0.6

row,Sequence,protein stability index
1,RLIQPLQVQFLN,0.63
2,RLIQPWPVQFLN,0.545
3,RLIQYLPVQFLN,0.637
4,RLVQPLPVQFLN,0.628
5,RVVYLSCVACIN,0.0603
6,TDKRNHLIKLLN,0.577
7,VRGAVDGWRLVG,0.67
8,VRGAVGAWRLVG,0.704
9,VRGAVGGTRLVG,0.673
10,VRGAVGGWDLVG,0.656
11,VRGAVGGWRLEG,0.69
12,VRGAVGGWRLIG,0.674
13,VRGAVGGWRLVC,0.634
14,VRGAVGGWRLVGG,0.682
15,VRGAVGGWRLVGW,0.668
16,VRGAVGGWRPVG,0.671
17,VRGAVGGWRWVG,0.682
18,VRGAVGGWVLVG,0.659
19,VRGAVGGWWLVG,0.669
20,VRGAVGVWRLVG,0.665
21,VRGIVGGWRLVG,0.682
